In the RNAGym collection of RNA variant scans (doi:10.1073/pnas.2313332121):

B1: TPR t1 (parent)
chain: GACCAAUCUGCCCUCAGAGCUCGAGAACAUCUUCGGAUGCAGAGGAGGCAGGCUUCGGUGGCGCGAUAGCGCCAACGUCCUCAACCUCCAAUGCAUCCCACCACAUGAUGAUGCCUGAAGAGCCUUGGUUUUUUG

Variants of: B1
Assay: polymerase ribozyme fitness, log enrichment relative to wild type (log ratio); higher = more active; in vitro selection for triplet polymerase activity
Outline: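 A heterodimeric triplet polymerase ribozyme had each of its subunits mutagenized by PCR into a library, which was transcribed. One round of in vitro selection, done in triplicate, annealed each library with a biotinylated primer, its partner subunit and triplets, then incubated it frozen at −7 °C before gel excision of extended constructs, streptavidin-bead capture and RT-PCR. Fitness is the logarithm of genotype enrichment relative to wild-type enrichment, based on Illumina sequencing of inputs and outputs and inverse-variance-weighted replicate averages. A base-2 logarithm is used, and genotypes were kept only with ≥10 input reads and ≥1 read per output.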

Variant | polymerase ribozyme fitness (log ratio)
G19U C56U C89G | -3.6
G19U C64U C124U | -2.27
G19U C70U U78C C88U | -3.57
G19U C72G U78A | -5.06
G19U C79U C82U A95C C101A | -4.63
G19U C80A G113A | -5
G19U C86U | -2.9
G19U G23C A27G A41C A46U G47C C70U C115U G135A | -5.42
G19U G25A C53U C64G G107C C114G | -8.12
G19U G45U G60U A119U | -5.1
G19U G51A G60A G77C G113U | -6.6
G19U G58C | -4.22
G19U G61A | -3.31
G19U G61A C82G C124A | -2.1
G19U G69A | -3.8
G19U G69C | -4.45
G19U G71A A118G | -6.34
G19U G107A G120A U125A | -7.29
G19U G110A | -4.35
G19U G120U | -2.46
G19U G122U C123A U129A | -4.23
G19U U55G C70U U87G A95C U112C C114A | -0.702
G19U U55G U87G A95C U112C C114A | 0.393
G19U U59A | -3.3

Variant | polymerase ribozyme fitness (log ratio)
G19U U87A | -3.34
C20A A27G C40G U55C G71C | -4.12
C20A A43C C94U | -4.19
C20A A50U U126C | -4.92
C20A A74U | -3.01
C20A A91C | -3.55
C20A A95G U112A G120U | -1.91
C20A C22G G113A U132A | -4.93
C20A C28U C62U C101A G113A | -6.69
C20A C31U G44C A68C G113C U116C G135C | -5.66
C20A C49G G93A | -3.77
C20A C53U U87A | -3.21
C20A C56A | -2.5
C20A C56G | -3.63
C20A C56U | -2.54
C20A C56U U96G | -3.51
C20A C62G A66C C104G U116C C123G G128U | -6.82
C20A C70A C123A U130A | -4.36
C20A C70U | -3.19
C20A C72G U131G | -3.6
C20A C73U | -2.08
C20A C76U C82G U96G | -4.53
C20A C86G C114U C115U | -5.24
C20A C88A | -2.94

Variant | polymerase ribozyme fitness (log ratio)
C20A C124A | -0.989
C20A G36U | -2.98
C20A G39A G42C G61U U129C | -5.17
C20A G39C | -3.59
C20A G42C A43G | -3.32
C20A G42C G48U G122U | -4.09
C20A G42U | -4
C20A G45C G57C C73G U106C U130G | -4.17
C20A G45U | -4.09
C20A G45U C56U | -3.25
C20A G47U C72A A111C | -3.96
C20A G48U C70A U78G G113A G117C | -7.02
C20A G52C U125A | -3.04
C20A G57C C62U | -1.88
C20A G60A G113C | -5.06
C20A G61U G63A C72U U92C C99G C101A C123U | -6.1
C20A G63A | -3.49
C20A G63A C102G G113C C115A G117C | -8.43
C20A G63U C85G | -5.08
C20A G69A | -5.6
C20A G69U | -1.94
C20A G71A | -3.79
C20A G77U G120C | -1.96
C20A G93U U112G | -4.35

Variant | polymerase ribozyme fitness (log ratio)
C20A G110A | -4.21
C20A G113C | -4.5
C20A G127A | -3.23
C20A U32A | -3.55
C20A U32A G93C | -4.21
C20A U32G G44A C73A C114G U132A | -5.73
C20A U59A U78A G117A | -4.88
C20A U59C | -2.71
C20A U87G U92G | -4.3
C20A U92G G110U | -5.28
C20A U96A C102G C114A | -5.84
C20A U112C U116A | -3.11
C20G A37G G69U C79U G117C | -1.73
C20G A41U C115U | -4.6
C20G A43G G48A C72G U106A C123A U129A | -6.54
C20G A43U | -3.89
C20G A50C | -6.14
C20G A50C C80U G93A G120C U125G | -6.66
C20G A118U | -3.53
C20G C28U A37U A43U G45A U106A C123G | -7.36
C20G C40U G42C G48U U109A | -4.15
C20G C53A G57U A91C A95G U109G | -3.11
C20G C53U G60A U96A | -5.21
C20G C56A C124U | -4.05

Variant | polymerase ribozyme fitness (log ratio)
C20G C56U A84G A111C C115G A121C U132A | -3.92
C20G C62U G113C | -1.25
C20G C72A C115A | -4.55
C20G C76U G93C A95G C124A | -4.72
C20G C97A U116C C123G | -5.78
C20G C123G | -2.95
C20G G36U U92C C101A U106A U109A | -3.02
C20G G44C C72G A95G | -5.22
C20G G45U G61A | -4.19
C20G G47A G57U | -5.83
C20G G48A G60U U96A A105U G110U A118U | -6.72
C20G G51A G61A C85G A121U | -7.66
C20G G52A A111U | -3.23
C20G G60A G120C | -4.56
C20G G63A | -6.16
C20G G63C | -4.72
C20G G69A G113A | -5.37
C20G G69U C99U | -5.06
C20G G107A C114U G122A | -6.03
C20G G113A | -2.69
C20G G113C | -1.32
C20G G117C | -5.4
C20G U21A C62U U112A | -1.31
C20G U32G C80A C99A C124G | -5.93

Variant | polymerase ribozyme fitness (log ratio)
C20G U33G C34G G44A A46U C98G G110C G113C | -6.24
C20G U106C | -4.11
C20G U112C | -2.48
C20G U116C | -3.78
C20U A24U C56U | -6.92
C20U A26G A43G C53G C62A C82U | -5.29
C20U A26G G60C A90C | -4.37
C20U A27C G117U | -6
C20U A29G G63A C80U | -4.01
C20U A37U C72G C101A | -2.76
C20U A41C | -3.04
C20U A41G G60C | -2.04
C20U A43G C62U U78G U87A C89G | -5.31
C20U A43G C62U U112C | -1.04
C20U A43G U112C | -0.81
C20U A43U | -2.08
C20U A46C C72G | -3.17
C20U A91U | -2.81
C20U A95G C104A U109C C114U C124A | -3.03
C20U C22A C76U C85G C123U | -5.95
C20U C22A G23U G44U G63A C88G A103C U109A | -6.38
C20U C22A G23U G44U G63U A66C C88G A103C U109A | -6.53
C20U C22G A50C C97U U106A A121C | -4.3
C20U C22G G47A C72U C73U C101G A119G G122U | -6.75

Variant | polymerase ribozyme fitness (log ratio)
C20U C28A G60A A121C | -2.44
C20U C28U G45C | -4.64
C20U C31G A66U C73U C98A G110A | -6.9
C20U C40G | -2.17
C20U C40G A46C G60U A75C | -4.1
C20U C53G | -1.28
C20U C53G G69C | -2.15
C20U C56A C73U U129G U130A | -3
C20U C62A C104U A119U C123A G128U | -2.83
C20U C70U C102U | -3.45
C20U C72G A91G C101A C114G | -2.36
C20U C72G C102A | -3.19
C20U C72U C82U C115A | -1.91
C20U C72U G120C | -1.44
C20U C76A | -2.08
C20U C94G C101U U106A | -5.04
C20U C123A | -0.867
C20U C124G | 0.389
C20U G23A G61A U112A G113A G122C U130C | -6.32
C20U G35C G57U C80U U129G | -5.92
C20U G36U C70U G135U | -3.95
C20U G42A | -2.49
C20U G44A A74G U87C U92A G93A C124U | -3.64
